For data set [1], the system named is alpha2-TALEN-L (Platinum TALEN, TRAC exon 1). The data set is described as follows: cell_activity. As to conditions: half-site not delineated.
For data set [2], the system named is alpha2-TALEN-R (Platinum TALEN, TRAC exon 1). Nature of the data set: cell_activity. The conditions noted are these: half-site not delineated.
The mark [3] stands for this setting: 1G4 knock-in efficiency in beta-null Jurkat with alpha2-TALEN pair and modified PITCh vector.
The mark [4] stands for this setting: 1G4 knock-in efficiency in beta-null Jurkat with alpha2-TALEN pair and conventional PITCh vector.

“GTCTGCCTATTCACCGATTGAAGATTTTGATTCAATGTGTCACAAAGTAAGGA (double strand)”: the activity in data set [1] (setting [3]) and in data set [2] (setting [3]) was 3.5% each time.
For the sequence “GTCTGCCTATTCACCGATTGAAGATTTTGATTCAATGTGTCACAAAGTAAGGATTC (double strand)”, the activity in data set [1] (setting [4]) and in data set [2] (setting [4]) was 3.1% in each case.
